Data taken from PMC4621360 (2015).

Biological target: FSFG-K (single FSFG site) (Saccharomyces cerevisiae, UniProt P14907)
Assay: NMR

- Kd: > 216 µM
B1: Kap95 (protein)
chain: STAEFAQLLENSILSPDQNIRLTSETQLKKLSNDNFLQFAGLSSQVLIDENTKLEGRILAALTLKNELVSKDSVKTQQFAQRWITQVSPEAKNQIKTNALTALVSIEPRIANAAAQLIAAIADIELPHGAWPELMKIMVDNTGAEQPENVKRASLLALGYMCESADPQSQALVSSSNNILIAIVQGAQSTETSKAVRLAALNALADSLIFIKNNMEREGERNYLMQVVCEATQAEDIEVQAAAFGCLCKIMSLYYTFMKPYMEQALYALTIATMKSPNDKVASMTVEFWSTICEEEIDIAYELAQFPQSPLQSYNFALSSIKDVVPNLLNLLTRQNEDPEDDDWNVSMSAGACLQLFAQNCGNHILEPVLEFVEQNITADNWRNREAAVMAFGSIMDGPDKVQRTYYVHQALPSILNLMNDQSLQVKETTAWCIGRIADSVAESIDPQQHLPGVVQACLIGLQDHPKVATNCSWTIINLVEQLAEATPSPIYNFYPALVDGLIGAANRIDNEFNARASAFSALTTMVEYATDTVAETSASISTFVMDKLGQTMSVDENQLTLEDAQSLQELQSNILTVLAAVIRKSPSSVEPVADMLMGLFFRLLEKKDSAFIEDDVFYAISALAASLGKGFEKYLETFSPYLLKALNQVDSPVSITAVGFIADISNSLEEDFRRYSDAMMNVLAQMISNPNARRELKPAVLSVFGDIASNIGADFIPYLNDIMALCVAAQNTKPENGTLEALDYQIKVLEAVLDAYVGIVAGLHDKPEALFPYVGTIFQFIAQVAEDPQLYSEDATSRAAVGLIGDIAAMFPDGSIKQFYGQDWVIDYIKRTRSGQLFSQATKDTARWAREQQKRQLSL
